Like-named read-outs stand apart in the source and are kept apart here.
Tests used:
Experiment in all cases: cell-based or functional assay
[1] = molecular target: human IFN receptor on HEK-Blue IFN-γ cells (human)
human CD40 [2] = molecular target: T1, human CD40 (human, UniProt P25942 21-277)
[3] = molecular target: human IFN receptor on HEK-Blue IFN-γ cells (human); remark: listed apart in the source
[4] = molecular target: human IFN receptor on HEK-Blue IFN-λ cells (human)
human CD40 [5] = molecular target: T1, human CD40; remark: listed apart in the source
human CD40 [6] = molecular target: T1, human CD40; remark: listed apart in the source
[7] = molecular target: human IFN receptor on HEK-Blue IFN-α/β cells (human)

T1 sequence (P25942 21-277): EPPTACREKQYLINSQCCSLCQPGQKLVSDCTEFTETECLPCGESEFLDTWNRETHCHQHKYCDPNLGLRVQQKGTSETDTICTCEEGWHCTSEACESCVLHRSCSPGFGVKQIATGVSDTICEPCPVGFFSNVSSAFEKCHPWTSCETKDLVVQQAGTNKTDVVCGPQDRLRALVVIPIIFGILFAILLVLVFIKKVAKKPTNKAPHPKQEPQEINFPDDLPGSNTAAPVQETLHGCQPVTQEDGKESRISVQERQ

| CD40 EC50 (HEK-Blue CD40L reporter cells) (human CD40 [2]) | CD40 EC50 (HEK-Blue CD40L reporter cells) (human CD40 [6]) | IFNβ EC50 (HEK-Blue IFN-α/β reporter cells) [7] | Binder | also measured |
| --- | --- | --- | --- | --- |
|  | 37.3 ng/mL | 1.27 ng/mL | IFA108 (antibody, human IgG2, kappa) heavy: QVQLVESGGGVVQPGKSLRLSCAASGFTFSSNGIHWVRQAPGKGLEWVAVIWSDGSNKFYADSVKGRFTISRDNSKNTLYLQMNSLRAEDTAVYYCARASGSGSYYNFFDYWGQGTLVTVSSASTKGPSVFPLAPCSRSTSESTAALGCLVKDYFPEPVTVSWNSGALTSGVHTFPAVLQSSGLYSLSSVVTVPSSNFGTQTYTCNVDHKPSNTKVDKTVERKCCVECPPCPAPPVAGPSVFLFPPKPKDTLMISRTPEVTCVVVDVSHEDPEVQFNWYVDGVEVHNAKTKPREEQFNSTFRVVSVLTVVHQDWLNGKEYKCKVSNKGLPAPIEKTISKTKGQPREPQVYTLPPSREEMTKNQVSLTCLVKGFYPSDIAVEWESNGQPENNYKTTPPMLDSDGSFFLYSKLTVDKSRWQQGNVFSCSVMHEALHNHYTQKSLSLSPGAEAAAKEAAAKASYNLLGFLQRSSNFQCQKLLWQLNGRLEYCLKDRMNFDIPEEIKQLQQFQKEDAALTIYEMLQNIFAIFRQDSSSTGWNETIVENLLANVYHQINHLKTVLEEKLEKEDFTRGKLMSSLHLKRYYGRILHYLKAKEYSHCAWTIVRVEILRNFYFINRLTGYLRN light: not shown |  |
|  | 30 ng/mL | 0.45 ng/mL | IFA109 (antibody, human IgG2, kappa) heavy: QVQLVESGGGVVQPGKSLRLSCAASGFTFSSNGIHWVRQAPGKGLEWVAVIWSDGSNKFYADSVKGRFTISRDNSKNTLYLQMNSLRAEDTAVYYCARASGSGSYYNFFDYWGQGTLVTVSSASTKGPSVFPLAPCSRSTSESTAALGCLVKDYFPEPVTVSWNSGALTSGVHTFPAVLQSSGLYSLSSVVTVPSSNFGTQTYTCNVDHKPSNTKVDKTVERKCCVECPPCPAPPVAGPSVFLFPPKPKDTLMISRTPEVTCVVVDVSHEDPEVQFNWYVDGVEVHNAKTKPREEQFNSTFRVVSVLTVVHQDWLNGKEYKCKVSNKGLPAPIEKTISKTKGQPREPQVYTLPPSREEMTKNQVSLTCLVKGFYPSDIAVEWESNGQPENNYKTTPPMLDSDGSFFLYSKLTVDKSRWQQGNVFSCSVMHEALHNHYTQKSLSLSPGAEAAAKEAAAKASYNLLGFLQRSSNFQSQKLLWQLNGRLEYCLKDRMNFDIPEEIKQLQQFQKEDAALTIYEMLQNIFAIFRQDSSSTGWNETIVENLLANVYHQINHLKTVLEEKLEKEDFTRGKLMSSLHLKRYYGRILHYLKAKEYSHCAWTIVRVEILRNFYFINRLTGYLRN light: not shown |  |
|  | 142 ng/mL | 2.03 ng/mL | IFA107 (antibody, human IgG2, kappa) heavy: QVQLVESGGGVVQPGKSLRLSCAASGFTFSSNGIHWVRQAPGKGLEWVAVIWSDGSNKFYADSVKGRFTISRDNSKNTLYLQMNSLRAEDTAVYYCARASGSGSYYNFFDYWGQGTLVTVSSASTKGPSVFPLAPCSRSTSESTAALGCLVKDYFPEPVTVSWNSGALTSGVHTFPAVLQSSGLYSLSSVVTVPSSNFGTQTYTCNVDHKPSNTKVDKTVERKCCVECPPCPAPPVAGPSVFLFPPKPKDTLMISRTPEVTCVVVDVSHEDPEVQFNWYVDGVEVHNAKTKPREEQFNSTFRVVSVLTVVHQDWLNGKEYKCKVSNKGLPAPIEKTISKTKGQPREPQVYTLPPSREEMTKNQVSLTCLVKGFYPSDIAVEWESNGQPENNYKTTPPMLDSDGSFFLYSKLTVDKSRWQQGNVFSCSVMHEALHNHYTQKSLSLSPGPAPASYNLLGFLQRSSNFQSQKLLWQLNGRLEYCLKDRMNFDIPEEIKQLQQFQKEDAALTIYEMLQNIFAIFRQDSSSTGWNETIVENLLANVYHQINHLKTVLEEKLEKEDFTRGKLMSSLHLKRYYGRILHYLKAKEYSHCAWTIVRVEILRNFYFINRLTGYLRN light: not shown |  |

Further lines, the binder ahead of its results:

| Binder | CD40 EC50 (HEK-Blue CD40L reporter cells) (human CD40 [2]) | CD40 EC50 (HEK-Blue CD40L reporter cells) (human CD40 [6]) | IFNβ EC50 (HEK-Blue IFN-α/β reporter cells) [7] | also measured |
| --- | --- | --- | --- | --- |
| IFA43 (antibody, human IgG2, kappa) heavy: not shown light: DIQMTQSPSSVSASVGDRVTITCRASQGIYSWLAWYQQKPGKAPNLLIYTASTLQSGVPSRFSGSGSGTDFTLTISSLQPEDFATYYCQQANIFPLTFGGGTKVEIKRTVAAPSVFIFPPSDEQLKSGTASVVCLLNNFYPREAKVQWKVDNALQSGNSQESVTEQDSKDSTYSLSSTLTLSKADYEKHKVYACEVTHQGLSSPVTKSFNRGEC | 50.8 ng/mL |  |  | IFNγ activity EC50 (HEK-Blue IFNγ reporter cells) [1]: < 0.01 ng/mL; IFNγ EC50 (HEK-Blue IFNγ reporter cells) [3]: < 0.001 ng/mL |
| IFA45 (antibody, human IgG2, kappa) heavy: not shown light: DIQMTQSPSSVSASVGDRVTITCRASQGIYSWLAWYQQKPGKAPNLLIYTASTLQSGVPSRFSGSGSGTDFTLTISSLQPEDFATYYCQQANIFPLTFGGGTKVEIKRTVAAPSVFIFPPSDEQLKSGTASVVCLLNNFYPREAKVQWKVDNALQSGNSQESVTEQDSKDSTYSLSSTLTLSKADYEKHKVYACEVTHQGLSSPVTKSFNRGEC | 25.8 ng/mL |  |  | IFNλ EC50 (HEK-Blue IFNλ reporter cells) [4]: < 0.001 ng/mL |
| agonistic anti-CD40 antibody CP870,893 (antibody, human IgG2, kappa) heavy: not shown light: DIQMTQSPSSVSASVGDRVTITCRASQGIYSWLAWYQQKPGKAPNLLIYTASTLQSGVPSRFSGSGSGTDFTLTISSLQPEDFATYYCQQANIFPLTFGGGTKVEIKRTVAAPSVFIFPPSDEQLKSGTASVVCLLNNFYPREAKVQWKVDNALQSGNSQESVTEQDSKDSTYSLSSTLTLSKADYEKHKVYACEVTHQGLSSPVTKSFNRGEC |  |  |  | EC50, agonistic CD40 activity in the experiment of FIG. 3 (HEK-Blue CD40L reporter cells) (human CD40 [5]): 57 ng/mL; EC50, potency on CD40 pathway (HEK-Blue CD40L reporter cells) (human CD40 [5]): 30 to 80 ng/mL; mean EC50, agonistic CD40 activity (HEK-Blue CD40L reporter cells) (human CD40 [5]): 48 ng/mL |
| IFA44 (antibody, human IgG2, kappa) light: DIQMTQSPSSVSASVGDRVTITCRASQGIYSWLAWYQQKPGKAPNLLIYTASTLQSGVPSRFSGSGSGTDFTLTISSLQPEDFATYYCQQANIFPLTFGGGTKVEIKRTVAAPSVFIFPPSDEQLKSGTASVVCLLNNFYPREAKVQWKVDNALQSGNSQESVTEQDSKDSTYSLSSTLTLSKADYEKHKVYACEVTHQGLSSPVTKSFNRGECGGGGSGGGGSGGGGSGGGGSVPVARLHGALPDARGCHIAQFKSLSPQELQAFKRAKDALEESLLLKDCRCHSRLFPRTWDLRQLQVRERPMALEAELALTLKVLEATADTDPALVDVLDQPLHTLHHILSQFRACIQPQPTAGPRTRGRLHHWLYRLQEAPKKESPGCLEASVTFNLFRLLTRDLNCVASGDLCV heavy: not shown | 41.4 ng/mL |  |  | IFNλ EC50 (HEK-Blue IFNλ reporter cells) [4]: 0.153 ng/mL |
| anti-CD40 antibody 3G5 (Celldex) (antibody, human IgG2, kappa) heavy: QVQLVESGGGVVQPGKSLRLSCAASGFTFSSNGIHWVRQAPGKGLEWVAVIWSDGSNKFYADSVKGRFTISRDNSKNTLYLQMNSLRAEDTAVYYCARASGSGSYYNFFDYWGQGTLVTVSSASTKGPSVFPLAPCSRSTSESTAALGCLVKDYFPEPVTVSWNSGALTSGVHTFPAVLQSSGLYSLSSVVTVPSSNFGTQTYTCNVDHKPSNTKVDKTVERKCCVECPPCPAPPVAGPSVFLFPPKPKDTLMISRTPEVTCVVVDVSHEDPEVQFNWYVDGVEVHNAKTKPREEQFNSTFRVVSVLTVVHQDWLNGKEYKCKVSNKGLPAPIEKTISKTKGQPREPQVYTLPPSREEMTKNQVSLTCLVKGFYPSDIAVEWESNGQPENNYKTTPPMLDSDGSFFLYSKLTVDKSRWQQGNVFSCSVMHEALHNHYTQKSLSLSPG light: not shown |  |  |  | mean EC50, CD40 activity (HEK-Blue CD40L reporter cells) (human CD40 [5]): 9.3 ng/mL |
| IFA106 (antibody, human IgG2, kappa) heavy: QVQLVESGGGVVQPGKSLRLSCAASGFTFSSNGIHWVRQAPGKGLEWVAVIWSDGSNKFYADSVKGRFTISRDNSKNTLYLQMNSLRAEDTAVYYCARASGSGSYYNFFDYWGQGTLVTVSSASTKGPSVFPLAPCSRSTSESTAALGCLVKDYFPEPVTVSWNSGALTSGVHTFPAVLQSSGLYSLSSVVTVPSSNFGTQTYTCNVDHKPSNTKVDKTVERKCCVECPPCPAPPVAGPSVFLFPPKPKDTLMISRTPEVTCVVVDVSHEDPEVQFNWYVDGVEVHNAKTKPREEQFNSTFRVVSVLTVVHQDWLNGKEYKCKVSNKGLPAPIEKTISKTKGQPREPQVYTLPPSREEMTKNQVSLTCLVKGFYPSDIAVEWESNGQPENNYKTTPPMLDSDGSFFLYSKLTVDKSRWQQGNVFSCSVMHEALHNHYTQKSLSLSPGPAPASYNLLGFLQRSSNFQCQKLLWQLNGRLEYCLKDRMNFDIPEEIKQLQQFQKEDAALTIYEMLQNIFAIFRQDSSSTGWNETIVENLLANVYHQINHLKTVLEEKLEKEDFTRGKLMSSLHLKRYYGRILHYLKAKEYSHCAWTIVRVEILRNFYFINRLTGYLRN light: not shown |  | 190 ng/mL | 10.3 ng/mL |  |
| IFA42 (antibody, human IgG2, kappa) light: DIQMTQSPSSVSASVGDRVTITCRASQGIYSWLAWYQQKPGKAPNLLIYTASTLQSGVPSRFSGSGSGTDFTLTISSLQPEDFATYYCQQANIFPLTFGGGTKVEIKRTVAAPSVFIFPPSDEQLKSGTASVVCLLNNFYPREAKVQWKVDNALQSGNSQESVTEQDSKDSTYSLSSTLTLSKADYEKHKVYACEVTHQGLSSPVTKSFNRGECGGGGSGGGGSGGGGSGGGGSQDPYVKEAENLKKYFNAGHSDVADNGTLFLGILKNWKEESDRKIMQSQIVSFYFKLFKNFKDDQSIQKSVETIKEDMNVKFFNSNKKKRDDFEKLTNYSVTDLNVQRKAIHELIQVMAELSPAAKTGKRKRSQMLFRGRRASQ heavy: not shown | 65.6 ng/mL |  |  | IFNγ EC50 (HEK-Blue IFNγ reporter cells) [3]: 15.4 ng/mL |

Reference: US20230028476A1 (EVOTEC INTERNATIONAL, published 2023)
